Reference: patent US6521458

Molecular target: barnase (UniProt P00648)
Test: cell-based or functional assay

Chain of UniProt P00648 (P00648 48-157 limits assumed): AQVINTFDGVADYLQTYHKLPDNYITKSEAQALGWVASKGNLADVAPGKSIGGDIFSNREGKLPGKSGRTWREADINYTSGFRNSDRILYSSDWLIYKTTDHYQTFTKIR

## barstar (from UniProt P11540 2-90)
  percent LUC positive shoots from barstar5 explants transformed with pBH700 (against 15% from wild type explants without barstar): 46%
